Test results: US20080181886A1 (Genentech, published 2008)
Residue numbers refer to the chain shown, from its start.

T1: Murine APRIL (mouse, UniProt Q9D777 105-241, limits assumed)
T1 sequence (looked up): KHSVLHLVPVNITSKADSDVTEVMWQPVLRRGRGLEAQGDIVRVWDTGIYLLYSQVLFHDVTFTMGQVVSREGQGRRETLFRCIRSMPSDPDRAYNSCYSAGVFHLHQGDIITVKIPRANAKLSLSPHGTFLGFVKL

B1: TACI_d2 K107T (receptor)
chain: SLSCRKEQGKFYDHLLRDCISCASICGQHPKQCAYFCENTLR
notes: phage library variant, format as m9
B2: TACI_d2 Q99P (receptor)
chain: B1 chain with Q32P, T40K
notes: as for B1
B3: TACI_d2 Q75A (receptor)
chain: B1 chain with Q8A, T40K
notes: as for B1
B4: TACI_d2 Y102A (receptor)
chain: B1 chain with Y35A, T40K
notes: as for B1
B5: TACI_d2 R109G (receptor)
chain: B1 chain with T40K, R42G
notes: as for B1
B6: TACI_d2 N106A (receptor)
chain: B1 chain with N39A, T40K
notes: as for B1
B7: TACI_d2 L108V (receptor)
chain: B1 chain with T40K, L41V
notes: as for B1
B8: TACI_d2 Q75P (receptor)
chain: B1 chain with Q8P, T40K
notes: as for B1
B9: TACI_d2 R109A (receptor)
chain: B1 chain with T40K, R42A
notes: as for B1
B10: TACI_d2 L82P (receptor)
chain: B1 chain with L15P, T40K
notes: as for B1
B11: TACI_d2 R72G (receptor)
chain: B1 chain with R5G, T40K
notes: as for B1
B12: TACI_d2 R72P (receptor)
chain: B1 chain with R5P, T40K
notes: as for B1
B13: TACI_d2 L108A (receptor)
chain: B1 chain with T40K, L41A
notes: as for B1
B14: TACI_d2 N106T (receptor)
chain: B1 chain with N39T, T40K
notes: as for B1
B15: TACI_d2 Q75E (receptor)
chain: B1 chain with Q8E, T40K
notes: as for B1
B16: TACI_d2 R109P (receptor)
chain: B1 chain with T40K, R42P
notes: as for B1
B17: TACI_d2 R72A (receptor)
chain: B1 chain with R5A, T40K
notes: as for B1
B18: TACI_d2 L82A (receptor)
chain: B1 chain with L15A, T40K
notes: as for B1
B19: TACI_d2 L83V (receptor)
chain: B1 chain with L16V, T40K
notes: as for B1
B20: TACI_d2 L82V (receptor)
chain: B1 chain with L15V, T40K
notes: as for B1
B21: TACI_d2 Q99E (receptor)
chain: B1 chain with Q32E, T40K
notes: as for B1

The binders below were run against human BAFF (human, UniProt Q9Y275 82-285, limits assumed) (assay: shotgun scan, phage display).
Description: (§1) Phage from each of the libraries described above were subjected to rounds of binding selection against APRIL, BAFF, or anti-tag antibody (3C8:2F4 Genentech, Inc.) immobilized on 96-well Nunc Maxisorp immunoplates (Sidhu, 2001). BSA-coated wells were used to determine non-specific background binding. Phage eluted from each target were propagated in E. coli XL1-Blue in the presence of M13K07 helper phage; amplified phage were used for selection against the same target in the […] round. […] Enrichment was calculated from the ratio of the phage titer eluted from the target-coated wells to the phage titer eluted from the BSA-coated wells. Individual clones from each library and selection target were then grown in a 96-well format in 400 ul of 2YT medium supplemented with carbenicillin and KO7 helper phage. […] Sequences of acceptable quality were translated and aligned. For APRIL-binding, 71, 40, and 54 sequences were analyzed from libraries one, two and three, respectively. For BAFF-binding, 70, 50, and 53 sequences were analyzed for libraries one, two and three, respectively. For the display selection, a minimum of 47 sequences were analyzed for each library. […] F values describe the effect of mutation on target binding, while accounting for differences in display efficiencies, with values >1 representing deleterious mutations and those <1 representing favorable mutations.

Chain of human BAFF (Q9Y275 82-285 limits assumed): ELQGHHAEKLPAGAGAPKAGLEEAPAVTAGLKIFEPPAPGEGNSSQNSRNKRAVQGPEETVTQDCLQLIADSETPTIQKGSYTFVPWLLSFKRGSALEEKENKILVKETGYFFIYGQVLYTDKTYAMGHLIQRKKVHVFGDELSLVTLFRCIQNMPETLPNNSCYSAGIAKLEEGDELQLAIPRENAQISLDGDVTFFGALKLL

Binder | F (BAFF)
B1 | 1.1
B2 | 1.8
B3 | 0.9
B4 | 2
B5 | 1.2
B6 | 0.9
B7 | 1.2
B8 | 0.8
B9 | 0.9
B10 | > 61
B11 | 0.4
B12 | 0.6
B13 | 1.2
B14 | 1.2
B15 | 0.7
B16 | 1.2
B17 | 0.4
B18 | > 36
B19 | 1.6
B20 | > 25
B21 | 0.8

The binders below were run against T1, Murine APRIL (assay: shotgun scan, phage display).
Description: as §1

Binder | F (APRIL)
B1 | 1.1
B2 | 1.5
B3 | 1.4
B4 | 1.6
B5 | 1.2
B6 | 1.2
B7 | 0.9
B8 | 1.1
B9 | 1.5
B10 | > 49
B11 | 0.6
B12 | 0.7
B13 | 1
B14 | 1.6
B15 | 0.7
B16 | 1.2
B17 | 1.1
B18 | > 29
B19 | 4.8
B20 | > 20
B21 | 1.6
